Measurements as given in PMC9330781, “Isolated Variable Domains of an Antibody Can Assemble on Blood Coagulation Factor VIII into a Functional Fv-like Complex” (International Journal of Molecular Sciences, 2022).

B1: Recombinant B-domain deleted FVIII (BDD) (natural protein, human, UniProt P00451 20-2351, looked up)
chain 1: ATRRYYLGAVELSWDYMQSDLGELPVDARFPPRVPKSFPFNTSVVYKKTLFVEFTDHLFNIAKPRPPWMGLLGPTIQAEVYDTVVITLKNMASHPVSLHAVGVSYWKASEGAEYDDQTSQREKEDDKVFPGGSHTYVWQVLKENGPMASDPLCLTYSYLSHVDLVKDLNSGLIGALLVCREGSLAKEKTQTLHKFILLFAVFDEGKSWHSETKNSLMQDRDAASARAWPKMHTVNGYVNRSLPGLIGCHRKSVYWHVIGMGTTPEVHSIFLEGHTFLVRNHRQASLEISPITFLTAQTLLMDLGQFLLFCHISSHQHDGMEAYVKVDSCPEEPQLRMKNNEEAEDYDDDLTDSEMDVVRFDDDNSPSFIQIRSVAKKHPKTWVHYIAAEEEDWDYAPLVLAPDDRSYKSQYLNNGPQRIGRKYKKVRFMAYTDETFKTREAIQHESGILGPLLYGEVGDTLLIIFKNQASRPYNIYPHGITDVRPLYSRRLPKGVKHLKDFPILPGEIFKYKWTVTVEDGPTKSDPRCLTRYYSSFVNMERDLASGLIGPLLICYKESVDQRGNQIMSDKRNVILFSVFDENRSWYLTENIQRFLPNPAGVQLEDPEFQASNIMHSINGYVFDSLQLSVCLHEVAYWYILSIGAQTDFLSVFFSGYTFKHKMVYEDTLTLFPFSGETVFMSMENPGLWILGCHNSDFRNRGMTALLKVSSCDKNTGDYYEDSYEDISAYLLSKNNAIEPR
chain 2: EITRTTLQSDQEEIDYDDTISVEMKKEDFDIYDEDENQSPRSFQKKTRHYFIAAVERLWDYGMSSSPHVLRNRAQSGSVPQFKKVVFQEFTDGSFTQPLYRGELNEHLGLLGPYIRAEVEDNIMVTFRNQASRPYSFYSSLISYEEDQRQGAEPRKNFVKPNETKTYFWKVQHHMAPTKDEFDCKAWAYFSDVDLEKDVHSGLIGPLLVCHTNTLNPAHGRQVTVQEFALFFTIFDETKSWYFTENMERNCRAPCNIQMEDPTFKENYRFHAINGYIMDTLPGLVMAQDQRIRWYLLSMGSNENIHSIHFSGHVFTVRKKEEYKMALYNLYPGVFETVEMLPSKAGIWRVECLIGEHLHAGMSTLFLVYSNKCQTPLGMASGHIRDFQITASGQYGQWAPKLARLHYSGSINAWSTKEPFSWIKVDLLAPMIIHGIKTQGARQKFSSLYISQFIIMYSLDGKKWQTYRGNSTGTLMVFFGNVDSSGIKHNIFNPPIIARYIRLHPTHYSIRSTLRMELMGCDLNSCSMPLGMESKAISDAQITASSYFTNMFATWSPSKARLHLQGRSNAWRPQVNNPKEWLQVDFQKTMKVTGVTTQGVKSLLTSMYVKEFLISSSQDGHQWTLFFQNGKVKVFQGNQDSFTPVVNSLDPPLLTRYLRIHPQSWVHQIALRMEVLGCEAQDLY
notes: coagulation factor VIII, human, B-domain deleted; also called BDD FVIII; source: bought: FVIII pharmaceutical product, ASD Healthcare, AmerisourceBergen

Tests used:
Settings in all cases: both partners purified
[1] = biological target: T1, Recombinant blood coagulation factor VIII (human); test: SPR; each scFv variant covalently immobilised (amine coupling, CM5, 250-350 RU); FVIII injected at 3.125, 12.5, 50 and 200 nM; 10 mM HEPES, 150 mM NaCl, 5 mM CaCl2, 0.005% Polysorbate-20; 25 °C; 1:1 (Langmuir) binding model; Biacore T200
T1 construct: coagulation factor VIII, human, heavy chain with the domain structure A1-A2-B; coagulation factor VIII, human, light chain with the domain structure A3-C1-C2; Written here as one chain entry with two parts would be wrong: see the two pieces as heavy chain and light chain of the heterodimer; also called FVIII; source: bought: FVIII pharmaceutical product, ASD Healthcare, AmerisourceBergen

[2] = biological target: B1; test: pull-down; FVIII (BDD, ~2 µg) incubated with the scFv or its fragments (1- to 5-fold molar excess) in HBS-P/Ca buffer for 1 h at room temperature, captured on VIIISelect (FVIII-affinity) resin, washed, eluted, SDS-PAGE with silver staining
[3] = biological target: T2, Isolated VH subunit of thrombin-cleaved iKM33-v1; test: as above
T2 construct: as the VH of m2; the stretch of the linker of m2 that stays on VH after thrombin cleavage; About 13 kDa; source: thrombin cleavage of the purified scFv (Sf9); supernatant after Ni-NTA agarose, buffer exchanged and concentrated

Row | Binder | binding result [1] | binding result [2] | binding result [3]
1 | scFv iKM33-v1 (thrombin-cleavable variant of iKM33) (scFv, V domains shown, as the VH of m1; linker with a thrombin cleavage site made after the FVIII Arg740 site, 15 or 17 residues long; as the VL of m1; Differs from m1 only in the linker; also called intact scFv; source: Sf9 cells, baculovirus, purified from conditioned media (HisTrap Excel, Superdex 75)) VH: EVQLVESGGGVVQPGRSLRLSCVDSGLTFSSYGMHWVRQAPGAGLEWVAVISYDGNDKYYADSVKGRFAISRDNAKNTLYLQMNSLTIEDTAVYYCAKDLIESNIAEAFWGQGTLVTVSS VL: DIQMTQSPSSLSASVGDTVTIACRASRDIRNDLAWYQQKPGKAPKLLIYATSRLQSGVPSRFSGSGSFTDFTLTINSLQPDDSATYYCLQDSDYPLTFGGGTKVDIK | binds | binds | –
2 | scFv iKM33-v3 (thrombin-cleavable variant of iKM33) (scFv, V domains shown, as the VH of m1; linker with a thrombin cleavage site made after the FVIII Arg372 site; as the VL of m1; Differs from m1 only in the linker; source: Sf9 cells, baculovirus, purified from conditioned media (HisTrap Excel, Superdex 75)) VH: EVQLVESGGGVVQPGRSLRLSCVDSGLTFSSYGMHWVRQAPGAGLEWVAVISYDGNDKYYADSVKGRFAISRDNAKNTLYLQMNSLTIEDTAVYYCAKDLIESNIAEAFWGQGTLVTVSS VL: DIQMTQSPSSLSASVGDTVTIACRASRDIRNDLAWYQQKPGKAPKLLIYATSRLQSGVPSRFSGSGSFTDFTLTINSLQPDDSATYYCLQDSDYPLTFGGGTKVDIK | binds | – | –
3 | scFv iKM33-v2 (thrombin-cleavable variant of iKM33) (scFv, V domains shown, as the VH of m1; linker with a thrombin cleavage site made after the FVIII Arg740 site, 15 or 17 residues long; as the VL of m1; Differs from m1 only in the linker; also called non-cleaved scFv; source: Sf9 cells, baculovirus, purified from conditioned media (HisTrap Excel, Superdex 75)) VH: EVQLVESGGGVVQPGRSLRLSCVDSGLTFSSYGMHWVRQAPGAGLEWVAVISYDGNDKYYADSVKGRFAISRDNAKNTLYLQMNSLTIEDTAVYYCAKDLIESNIAEAFWGQGTLVTVSS VL: DIQMTQSPSSLSASVGDTVTIACRASRDIRNDLAWYQQKPGKAPKLLIYATSRLQSGVPSRFSGSGSFTDFTLTINSLQPDDSATYYCLQDSDYPLTFGGGTKVDIK | binds | – | –
4 | B1 | – | – | binds
